We go through 2 molecules from PMC12429950, “A chimeric RNA consisting of siRNA and aptamer for inhibiting dengue virus replication”.

Data set [1] deals with T1, DENV-1 VLP (envelope protein) (Dengue virus type 1, UniProt P17763 281-775). The data set can be described thus: SPR. Conditions: protein: commercial; predicted stem-loop.
Data set [2] has as its target T1, DENV-1 VLP (envelope protein). The data set can be described thus: SPR; response lower than DENV-Apt_41. Conditions: protein: commercial; predicted stem-loop.

T1 sequence (P17763 281-775): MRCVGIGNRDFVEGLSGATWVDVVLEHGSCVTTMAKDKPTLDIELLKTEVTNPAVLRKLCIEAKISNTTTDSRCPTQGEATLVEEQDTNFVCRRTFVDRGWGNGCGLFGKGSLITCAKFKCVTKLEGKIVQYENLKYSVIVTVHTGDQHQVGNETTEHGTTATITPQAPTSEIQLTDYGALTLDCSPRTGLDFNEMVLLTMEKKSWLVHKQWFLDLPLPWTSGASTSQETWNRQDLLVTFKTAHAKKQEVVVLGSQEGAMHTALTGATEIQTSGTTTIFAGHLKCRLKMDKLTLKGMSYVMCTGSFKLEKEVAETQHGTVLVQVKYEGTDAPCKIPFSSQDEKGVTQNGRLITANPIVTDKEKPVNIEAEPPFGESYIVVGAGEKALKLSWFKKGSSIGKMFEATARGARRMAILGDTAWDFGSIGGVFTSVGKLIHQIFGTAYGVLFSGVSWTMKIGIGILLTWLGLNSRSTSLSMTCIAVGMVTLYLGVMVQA

B1: DENV-Apt_41 (XNA)
RNA: GGGUAAUUUGUUUUACUGGGGGGUUAACCUAACAAGUGCCC
modifications: 2'-fluoro C and U
Take B1: the binding result in data set [1] is on record as “binds”.

B2: DENV-Apt (XNA)
RNA: GGGUCUUGUUUCUUCUCUGUGUGUAAUUUGUUUUACUGGGGGGUUAACCUAACAAGUGCACACUCGUCACACACUCACAUC
modifications: 2'-fluoro C and U
On to B2, for which the binding result in data set [2] was “binds”.
